Test results as given in patent US20160272683A1 (Novo Nordisk, published 2016).
Numbered stars: 1 amine (or outer) side, 2 acyl side, 3 side chain; on linkers, the order of the positions; unused ones are H or OH. Ends that are not written are not given here. * marks the point of attachment. C20 diacid = O=C(O)CCCCCCCCCCCCCCCCCCC(=O)*; C18 diacid = O=C(O)CCCCCCCCCCCCCCCCC(=O)*; γGlu = O=C(O)[C@H](CCC(=O)[*:2])N[*:1]

B1: [N-terminal(C20 diacid-gGlu), 2L, 4G, 8L, 9V, 15Q, 21Q, 23Y, 27G, 30S, 31G, 32T, 33Y]mimylin (peptide)
peptide: {C20 diacid-γGlu}-ELSGLSTLVLGRLSQELHELQTYPRTGTGSGTY-NH2
SMILES: CC(C)C[C@H](NC(=O)CNC(=O)[C@H](CO)NC(=O)[C@H](CC(C)C)NC(=O)[C@H](CCC(=O)O)NC(=O)CC[C@H](NC(=O)CCCCCCCCCCCCCCCCCCC(=O)O)C(=O)O)C(=O)N[C@@H](CO)C(=O)N[C@H](C(=O)N[C@@H](CC(C)C)C(=O)N[C@H](C(=O)N[C@@H](CC(C)C)C(=O)NCC(=O)N[C@@H](CCCNC(=N)N)C(=O)N[C@@H](CC(C)C)C(=O)N[C@@H](CO)C(=O)N[C@@H](CCC(N)=O)C(=O)N[C@@H](CCC(=O)O)C(=O)N[C@@H](CC(C)C)C(=O)N[C@@H](Cc1c[nH]cn1)C(=O)N[C@@H](CCC(=O)O)C(=O)N[C@@H](CC(C)C)C(=O)N[C@@H](CCC(N)=O)C(=O)N[C@H](C(=O)N[C@@H](Cc1ccc(O)cc1)C(=O)N1CCC[C@H]1C(=O)N[C@@H](CCCNC(=N)N)C(=O)N[C@H](C(=O)NCC(=O)N[C@H](C(=O)NCC(=O)N[C@@H](CO)C(=O)NCC(=O)N[C@H](C(=O)N[C@@H](Cc1ccc(O)cc1)C(N)=O)[C@@H](C)O)[C@@H](C)O)[C@@H](C)O)[C@@H](C)O)C(C)C)[C@@H](C)O
B2: [N-terminal(C20 diacid-gGlu), des1, 4G, 9V, 15Q, 21Q, 23aQ, 23bT, 23cY, 30S, 31Q, 32T, 33Y]mimylin (peptide)
peptide: {C20 diacid-γGlu}-ASGLSTAVLGRLSQELHELQTLQTYPRTETGSQTY-NH2
SMILES: CC(C)C[C@H](NC(=O)CNC(=O)[C@H](CO)NC(=O)[C@H](C)NC(=O)CC[C@H](NC(=O)CCCCCCCCCCCCCCCCCCC(=O)O)C(=O)O)C(=O)N[C@@H](CO)C(=O)N[C@H](C(=O)N[C@@H](C)C(=O)N[C@H](C(=O)N[C@@H](CC(C)C)C(=O)NCC(=O)N[C@@H](CCCNC(=N)N)C(=O)N[C@@H](CC(C)C)C(=O)N[C@@H](CO)C(=O)N[C@@H](CCC(N)=O)C(=O)N[C@@H](CCC(=O)O)C(=O)N[C@@H](CC(C)C)C(=O)N[C@@H](Cc1c[nH]cn1)C(=O)N[C@@H](CCC(=O)O)C(=O)N[C@@H](CC(C)C)C(=O)N[C@@H](CCC(N)=O)C(=O)N[C@H](C(=O)N[C@@H](CC(C)C)C(=O)N[C@@H](CCC(N)=O)C(=O)N[C@H](C(=O)N[C@@H](Cc1ccc(O)cc1)C(=O)N1CCC[C@H]1C(=O)N[C@@H](CCCNC(=N)N)C(=O)N[C@H](C(=O)N[C@@H](CCC(=O)O)C(=O)N[C@H](C(=O)NCC(=O)N[C@@H](CO)C(=O)N[C@@H](CCC(N)=O)C(=O)N[C@H](C(=O)N[C@@H](Cc1ccc(O)cc1)C(N)=O)[C@@H](C)O)[C@@H](C)O)[C@@H](C)O)[C@@H](C)O)[C@@H](C)O)C(C)C)[C@@H](C)O
B3: [N-terminal(C20 diacid-gGlu), des1, 4G, 9T, 15Q, 21Q, 23Y, 25P, 30S, 31G, 32T, 33Y]mimylin (peptide)
peptide: {C20 diacid-γGlu}-ASGLSTATLGRLSQELHELQTYPPTETGSGTY-NH2
SMILES: CC(C)C[C@H](NC(=O)CNC(=O)[C@H](CO)NC(=O)[C@H](C)NC(=O)CC[C@H](NC(=O)CCCCCCCCCCCCCCCCCCC(=O)O)C(=O)O)C(=O)N[C@@H](CO)C(=O)N[C@H](C(=O)N[C@@H](C)C(=O)N[C@H](C(=O)N[C@@H](CC(C)C)C(=O)NCC(=O)N[C@@H](CCCNC(=N)N)C(=O)N[C@@H](CC(C)C)C(=O)N[C@@H](CO)C(=O)N[C@@H](CCC(N)=O)C(=O)N[C@@H](CCC(=O)O)C(=O)N[C@@H](CC(C)C)C(=O)N[C@@H](Cc1c[nH]cn1)C(=O)N[C@@H](CCC(=O)O)C(=O)N[C@@H](CC(C)C)C(=O)N[C@@H](CCC(N)=O)C(=O)N[C@H](C(=O)N[C@@H](Cc1ccc(O)cc1)C(=O)N1CCC[C@H]1C(=O)N1CCC[C@H]1C(=O)N[C@H](C(=O)N[C@@H](CCC(=O)O)C(=O)N[C@H](C(=O)NCC(=O)N[C@@H](CO)C(=O)NCC(=O)N[C@H](C(=O)N[C@@H](Cc1ccc(O)cc1)C(N)=O)[C@@H](C)O)[C@@H](C)O)[C@@H](C)O)[C@@H](C)O)[C@@H](C)O)[C@@H](C)O
B4: [N-terminal(C20 diacid-gGlu), des1, 2L, 4Q, 8L, 9V, 15Q, 16R, 19R, 21Q, 23Y, 27Q, 30S, 31Q, 32T, 33Y]mimylin (peptide)
peptide: {C20 diacid-γGlu}-LSQLSTLVLGRLSQRLHRLQTYPRTQTGSQTY-NH2
SMILES: CC(C)C[C@H](NC(=O)CC[C@H](NC(=O)CCCCCCCCCCCCCCCCCCC(=O)O)C(=O)O)C(=O)N[C@@H](CO)C(=O)N[C@@H](CCC(N)=O)C(=O)N[C@@H](CC(C)C)C(=O)N[C@@H](CO)C(=O)N[C@H](C(=O)N[C@@H](CC(C)C)C(=O)N[C@H](C(=O)N[C@@H](CC(C)C)C(=O)NCC(=O)N[C@@H](CCCNC(=N)N)C(=O)N[C@@H](CC(C)C)C(=O)N[C@@H](CO)C(=O)N[C@@H](CCC(N)=O)C(=O)N[C@@H](CCCNC(=N)N)C(=O)N[C@@H](CC(C)C)C(=O)N[C@@H](Cc1c[nH]cn1)C(=O)N[C@@H](CCCNC(=N)N)C(=O)N[C@@H](CC(C)C)C(=O)N[C@@H](CCC(N)=O)C(=O)N[C@H](C(=O)N[C@@H](Cc1ccc(O)cc1)C(=O)N1CCC[C@H]1C(=O)N[C@@H](CCCNC(=N)N)C(=O)N[C@H](C(=O)N[C@@H](CCC(N)=O)C(=O)N[C@H](C(=O)NCC(=O)N[C@@H](CO)C(=O)N[C@@H](CCC(N)=O)C(=O)N[C@H](C(=O)N[C@@H](Cc1ccc(O)cc1)C(N)=O)[C@@H](C)O)[C@@H](C)O)[C@@H](C)O)[C@@H](C)O)C(C)C)[C@@H](C)O
B5: [N-terminal(C20 diacid-gGlu), des1, 4Q, 9V, 15Q, 16R, 19R, 21Q, 23Y, 27Q, 30S, 31Q, 32T, 33Y]mimylin (peptide)
peptide: {C20 diacid-γGlu}-ASQLSTAVLGRLSQRLHRLQTYPRTQTGSQTY-NH2
SMILES: CC(C)C[C@H](NC(=O)[C@H](CCCNC(=N)N)NC(=O)CNC(=O)[C@H](CC(C)C)NC(=O)[C@@H](NC(=O)[C@H](C)NC(=O)[C@@H](NC(=O)[C@H](CO)NC(=O)[C@H](CC(C)C)NC(=O)[C@H](CCC(N)=O)NC(=O)[C@H](CO)NC(=O)[C@H](C)NC(=O)CC[C@H](NC(=O)CCCCCCCCCCCCCCCCCCC(=O)O)C(=O)O)[C@@H](C)O)C(C)C)C(=O)N[C@@H](CO)C(=O)N[C@@H](CCC(N)=O)C(=O)N[C@@H](CCCNC(=N)N)C(=O)N[C@@H](CC(C)C)C(=O)N[C@@H](Cc1c[nH]cn1)C(=O)N[C@@H](CCCNC(=N)N)C(=O)N[C@@H](CC(C)C)C(=O)N[C@@H](CCC(N)=O)C(=O)N[C@H](C(=O)N[C@@H](Cc1ccc(O)cc1)C(=O)N1CCC[C@H]1C(=O)N[C@@H](CCCNC(=N)N)C(=O)N[C@H](C(=O)N[C@@H](CCC(N)=O)C(=O)N[C@H](C(=O)NCC(=O)N[C@@H](CO)C(=O)N[C@@H](CCC(N)=O)C(=O)N[C@H](C(=O)N[C@@H](Cc1ccc(O)cc1)C(N)=O)[C@@H](C)O)[C@@H](C)O)[C@@H](C)O)[C@@H](C)O
B6: [N-terminal(C20 diacid-gGlu), des1, 4G, 9V, 12K, 15Q, 21Q, 23Y, 25P, 30S, 31G, 32T, 33Y]mimylin (peptide)
peptide: {C20 diacid-γGlu}-ASGLSTAVLGKLSQELHELQTYPPTETGSGTY-NH2
SMILES: CC(C)C[C@H](NC(=O)CNC(=O)[C@H](CO)NC(=O)[C@H](C)NC(=O)CC[C@H](NC(=O)CCCCCCCCCCCCCCCCCCC(=O)O)C(=O)O)C(=O)N[C@@H](CO)C(=O)N[C@H](C(=O)N[C@@H](C)C(=O)N[C@H](C(=O)N[C@@H](CC(C)C)C(=O)NCC(=O)N[C@@H](CCCCN)C(=O)N[C@@H](CC(C)C)C(=O)N[C@@H](CO)C(=O)N[C@@H](CCC(N)=O)C(=O)N[C@@H](CCC(=O)O)C(=O)N[C@@H](CC(C)C)C(=O)N[C@@H](Cc1c[nH]cn1)C(=O)N[C@@H](CCC(=O)O)C(=O)N[C@@H](CC(C)C)C(=O)N[C@@H](CCC(N)=O)C(=O)N[C@H](C(=O)N[C@@H](Cc1ccc(O)cc1)C(=O)N1CCC[C@H]1C(=O)N1CCC[C@H]1C(=O)N[C@H](C(=O)N[C@@H](CCC(=O)O)C(=O)N[C@H](C(=O)NCC(=O)N[C@@H](CO)C(=O)NCC(=O)N[C@H](C(=O)N[C@@H](Cc1ccc(O)cc1)C(N)=O)[C@@H](C)O)[C@@H](C)O)[C@@H](C)O)[C@@H](C)O)C(C)C)[C@@H](C)O

Key:
[1] = target: T1, human calcitonin receptor (human, UniProt P30988 25-474); test: cell-based or functional assay
T1 sequence (looked up): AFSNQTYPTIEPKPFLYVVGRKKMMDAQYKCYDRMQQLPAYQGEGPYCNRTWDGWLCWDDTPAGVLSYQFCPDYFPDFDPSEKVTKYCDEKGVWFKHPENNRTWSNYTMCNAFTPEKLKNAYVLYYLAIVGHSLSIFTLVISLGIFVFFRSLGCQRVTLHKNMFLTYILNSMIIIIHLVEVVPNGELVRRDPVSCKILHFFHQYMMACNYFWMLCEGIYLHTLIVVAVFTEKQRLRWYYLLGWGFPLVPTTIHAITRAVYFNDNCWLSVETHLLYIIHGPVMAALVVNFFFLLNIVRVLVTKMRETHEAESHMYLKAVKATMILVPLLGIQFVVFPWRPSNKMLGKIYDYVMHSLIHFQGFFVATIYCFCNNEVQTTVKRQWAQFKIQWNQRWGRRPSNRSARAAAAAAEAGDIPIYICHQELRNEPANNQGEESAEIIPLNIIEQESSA

[2] = target: T2, human amylin 3(a) receptor (human calcitonin receptor co-expressed with RAMP-3) (human, UniProt P30988 25-474; O60896 24-148, limits assumed); test: cell-based or functional assay
T2 sequence (looked up) 1: T1 sequence (looked up)
T2 sequence (looked up) 2: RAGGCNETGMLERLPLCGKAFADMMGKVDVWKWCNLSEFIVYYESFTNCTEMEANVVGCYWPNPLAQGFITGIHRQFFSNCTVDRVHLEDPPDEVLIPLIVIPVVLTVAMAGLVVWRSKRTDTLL

Binder	hCTR funct. EC50 (pM) [1]	hAmylin-R funct. EC50 (pM) [2]
B1	25 pM	25 pM
B2	45 pM	54 pM
B3	19 pM	23 pM
B4	12 pM	10 pM
ASELSTAALGHLSAELHELATLPRTETGSGSP-NH2 [[des1, 12H, 30S, 31G]mimylin]	3 pM	14 pM
B5	15 pM	16 pM
B6	15 pM	18 pM
{C18 diacid}-EASELSTAALGRLSAELHELATLPRTETGPESP-OH [[N-terminal(C18 diacid), C-terminal(-)]mimylin]	45 pM	481 pM
ASELTTAVLGRLSAELHELATLPRTETGTGTP-NH2 [[des1, 6T, 9V, 30T, 31G, 32T]mimylin]	9 pM	46 pM
